Common to all, as to test: cell-based or functional assay
The target in experiment [1] is heterodimeric receptor complex (IL-22Rα/IL-10Rβ) (human) (UniProt Q8N6P7).
Experiment [2] deals with T1, heterodimeric receptor complex (IL-22Rα/IL-10Rβ) (human, UniProt Q8N6P7 16-574; Q08334 20-325).
T1 sequence (looked up) 1: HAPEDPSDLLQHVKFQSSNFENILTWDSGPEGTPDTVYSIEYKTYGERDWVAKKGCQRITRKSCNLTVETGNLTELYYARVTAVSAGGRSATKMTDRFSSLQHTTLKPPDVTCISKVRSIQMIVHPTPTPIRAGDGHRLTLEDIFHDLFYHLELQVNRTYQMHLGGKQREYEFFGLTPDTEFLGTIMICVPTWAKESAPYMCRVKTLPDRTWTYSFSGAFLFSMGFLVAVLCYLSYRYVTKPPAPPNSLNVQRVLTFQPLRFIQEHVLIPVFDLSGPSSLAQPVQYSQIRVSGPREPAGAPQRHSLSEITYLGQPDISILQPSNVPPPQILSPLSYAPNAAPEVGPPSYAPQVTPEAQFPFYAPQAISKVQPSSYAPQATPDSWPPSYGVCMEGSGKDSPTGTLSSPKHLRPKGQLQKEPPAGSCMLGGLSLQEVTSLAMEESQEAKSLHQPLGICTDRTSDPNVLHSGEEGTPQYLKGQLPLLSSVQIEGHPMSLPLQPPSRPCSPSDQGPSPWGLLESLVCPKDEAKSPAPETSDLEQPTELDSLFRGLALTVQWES
T1 sequence (looked up) 2: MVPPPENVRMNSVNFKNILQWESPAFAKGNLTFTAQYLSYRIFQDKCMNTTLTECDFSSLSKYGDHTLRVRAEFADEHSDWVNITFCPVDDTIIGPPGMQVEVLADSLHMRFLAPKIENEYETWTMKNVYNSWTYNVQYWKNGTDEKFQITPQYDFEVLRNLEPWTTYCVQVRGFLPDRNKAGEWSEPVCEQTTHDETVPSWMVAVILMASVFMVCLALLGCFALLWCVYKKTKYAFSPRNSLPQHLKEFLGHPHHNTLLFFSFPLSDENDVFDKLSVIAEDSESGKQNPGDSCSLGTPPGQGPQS

The target of experiment [3] is T1, heterodimeric receptor complex …. The source holds these as a separate data set.
The target is the same in experiment [4]. This is another data set of the same source.
Experiment [5] shares this target. The source holds these as a separate data set.
For experiment [6] the target is unchanged. This is another data set of the same source.

In the case of IL-22-Fc (Fc fusion), in experiment [1], the EC50 for STAT1 Activation (nM); pSTAT1 FACS, HT-29 cells stood at 49.9 nM; the EC50 for STAT3 Activation (nM); pSTAT3 FACS, HT-29 cells amounted to 12.9 nM; the HaCaT: HT29 ratio (higher is better); p-STAT3 EC50, FACS came out at 5.8; the STAT1/STAT3 EC50 ratio (higher is better); FACS, HT29 cells was determined as 3.2. For the same molecule, in experiment [1], the STAT1/STAT3 EC50 ratio (higher is better); FACS, HT-29 cells was determined as 3.9; the STAT1 Activation EC50 (nM); pSTAT1 FACS, HT29 cells came out at 12.6 nM; the STAT3 Activation EC50 (nM); pSTAT3 FACS, HT29 cells amounted to 3.9 nM; the p-STAT3 EC50 (nM), HaCaT; FACS stood at 22.7 nM.

B1: hB3-his (ligand)
chain: APISSHCRLDKENFQQPYITNRTFMLAKEASLADNNTDVRLIGEKLFHGVSMSERCYLMKQVLNFTLEEVLFPQSDRFQPYMAEVVPFLAALSNALSTCHIEGDDLHIQRNVQKLKDTVKKLGESGEIKAIGELDLLFMSLRNACIHHHHHH
As to B1, in experiment [2], the “STAT1/STAT3 Ratio (higher is better); ELISA, COLO205 cells” value is 2.34; the “STAT1 Activation EC50 (nM); p-STAT1 ELISA, COLO205 cells” value is 17.4 nM; the “STAT1 Activation, Fold change relative to wt IL-22; p-STAT1 ELISA, COLO205 cells” value worked out at 18.5 fold; the “STAT3 Activation EC50 (nM); p-STAT3 ELISA, COLO205 cells” value is 0.525 nM. Further, the “STAT3 Activation, Fold change relative to wt IL-22; p-STAT3 ELISA, COLO205 cells” value in experiment [2] is 7.92 fold. Further, in experiment [3], the “EC50 for STAT1 Activation (nM); pSTAT1 FACS, HT-29 cells” value amounted to 279 nM; the “EC50 for STAT3 Activation (nM); pSTAT3 FACS, HT-29 cells” value worked out at 4.13 nM; the “STAT1/STAT3 EC50 ratio (higher is better); FACS, HT-29 cells” value turned out to be 67.5. In experiment [4], the “STAT1/STAT3 EC50 ratio (higher is better); FACS, HT29 cells” value (shortened to “STAT1/STAT3 EC50 ratio … HT29 cells”) is 9.3; the “STAT1 Activation EC50 (nM); pSTAT1 FACS, HT29 cells” value (from here on “STAT1 Activation EC50 … HT29 cells”) stood at 23 nM; the “STAT3 Activation EC50 (nM); pSTAT3 FACS, HT29 cells” value (shortened to “STAT3 Activation EC50 … HT29 cells”) was determined as 2.47 nM.

B2: wt IL-22 (ligand)
chain: APISSHCRLDKSNFQQPYITNRTFMLAKEASLADNNTDVRLIGEKLFHGVSMSERCYLMKQVLNFTLEEVLFPQSDRFQPYMQEVVPFLARLSNRLSTCHIEGDDLHIQRNVQKLKDTVKKLGESGEIKAIGELDLLFMSLRNACI
Take B2: in experiment [2], the “STAT1/STAT3 Ratio (higher is better); ELISA, COLO205 cells” value is 1; the “STAT1 Activation EC50 (nM); p-STAT1 ELISA, COLO205 cells” value is 0.939 nM; the “STAT1 Activation, Fold change relative to wt IL-22; p-STAT1 ELISA, COLO205 cells” value is 1 fold; the “STAT3 Activation EC50 (nM); p-STAT3 ELISA, COLO205 cells” value was determined as 0.0663 nM. In experiment [2], the “STAT3 Activation, Fold change relative to wt IL-22; p-STAT3 ELISA, COLO205 cells” value was found to be 1 fold. In experiment [5], the “EC50 fold change of the test candidate relative to wt IL-22; STAT3 reporter gene assay, COLO205/SIE cells (Assay1)” value is 1 fold; the “EC50 fold change of the test candidate relative to wt IL-22; STAT3 reporter gene assay, COLO205/SIE cells (Assay2)” value was 1 fold; the “EC50 for STAT3 Activation (nM); STAT3 reporter gene assay, COLO205/SIE cells (Assay1)” value is 0.00529 nM; the “EC50 for STAT3 Activation (nM); STAT3 reporter gene assay, COLO205/SIE cells (Assay2)” value turned out to be 0.00303 nM.

B3: 60K-PEG-IL22-D109C (ligand)
chain: APISSHCRLDKSNFQQPYITNRTFMLAKEASLADNNTDVRLIGEKLFHGVSMSERCYLMKQVLNFTLEEVLFPQSCRFQPYMQEVVPFLARLSNRLSTCHIEGDDLHIQRNVQKLKDTVKKLGESGEIKAIGELDLLFMSLRNACI
modifications: Cys at position 76 (SEQ ID NO:1 numbering) conjugated to 60 kDa PEG-maleimide (thioether linkage)
Take B3: in experiment [6], the “HaCaT: HT29 ratio (higher is better); p-STAT3 EC50, FACS” value was 12.9 and the “p-STAT3 EC50 (nM), HaCaT; FACS” value amounted to 7.44 nM. Besides, in experiment [4], the “STAT1/STAT3 EC50 ratio … HT29 cells” value was 16.3; the “STAT1 Activation EC50 … HT29 cells” value was determined as 9.41 nM; the “STAT3 Activation EC50 … HT29 cells” value was found to be 0.577 nM.

B4: 40K-PEG-IL22-P50C (ligand)
chain: APISSHCRLDKSNFQQCYITNRTFMLAKEASLADNNTDVRLIGEKLFHGVSMSERCYLMKQVLNFTLEEVLFPQSDRFQPYMQEVVPFLARLSNRLSTCHIEGDDLHIQRNVQKLKDTVKKLGESGEIKAIGELDLLFMSLRNACI
modifications: Cys at position 17 (SEQ ID NO:1 numbering) conjugated to 40 kDa PEG-maleimide (thioether linkage)
As for B4, in experiment [4], the “STAT1/STAT3 EC50 ratio … HT29 cells” value amounted to 7.8; the “STAT1 Activation EC50 … HT29 cells” value was 369 nM; the “STAT3 Activation EC50 … HT29 cells” value is 47.5 nM.

B5: 80K-PEG-IL22-P50C (ligand)
chain: APISSHCRLDKSNFQQCYITNRTFMLAKEASLADNNTDVRLIGEKLFHGVSMSERCYLMKQVLNFTLEEVLFPQSDRFQPYMQEVVPFLARLSNRLSTCHIEGDDLHIQRNVQKLKDTVKKLGESGEIKAIGELDLLFMSLRNACI
modifications: Cys at position 17 (SEQ ID NO:1 numbering) conjugated to 80 kDa PEG-maleimide (thioether linkage)
Turning to B5, in experiment [4], the “STAT1/STAT3 EC50 ratio … HT29 cells” value worked out at 3.3; the “STAT1 Activation EC50 … HT29 cells” value was determined as 62.3 nM; the “STAT3 Activation EC50 … HT29 cells” value was found to be 18.9 nM.

B6: 80K-PEG-IL22-D109C (ligand)
chain: APISSHCRLDKSNFQQPYITNRTFMLAKEASLADNNTDVRLIGEKLFHGVSMSERCYLMKQVLNFTLEEVLFPQSCRFQPYMQEVVPFLARLSNRLSTCHIEGDDLHIQRNVQKLKDTVKKLGESGEIKAIGELDLLFMSLRNACI
modifications: Cys at position 76 (SEQ ID NO:1 numbering) conjugated to 80 kDa PEG-maleimide (thioether linkage)
Regarding B6, in experiment [4], the “STAT1/STAT3 EC50 ratio … HT29 cells” value was 7.1; the “STAT1 Activation EC50 … HT29 cells” value stood at 7 nM; the “STAT3 Activation EC50 … HT29 cells” value was 0.984 nM.

B7: 80K-PEG-IL22-P120C (ligand)
chain: APISSHCRLDKSNFQQPYITNRTFMLAKEASLADNNTDVRLIGEKLFHGVSMSERCYLMKQVLNFTLEEVLFPQSDRFQPYMQEVVCFLARLSNRLSTCHIEGDDLHIQRNVQKLKDTVKKLGESGEIKAIGELDLLFMSLRNACI
modifications: Cys at position 87 (SEQ ID NO:1 numbering) conjugated to 80 kDa PEG-maleimide (thioether linkage)
In the case of B7, in experiment [4], the “STAT1/STAT3 EC50 ratio … HT29 cells” value is 29; the “STAT1 Activation EC50 … HT29 cells” value was 574 nM; the “STAT3 Activation EC50 … HT29 cells” value was 19.8 nM.

B8: 40K-PEG-IL22-P120C (ligand)
chain: APISSHCRLDKSNFQQPYITNRTFMLAKEASLADNNTDVRLIGEKLFHGVSMSERCYLMKQVLNFTLEEVLFPQSDRFQPYMQEVVCFLARLSNRLSTCHIEGDDLHIQRNVQKLKDTVKKLGESGEIKAIGELDLLFMSLRNACI
modifications: Cys at position 87 (SEQ ID NO:1 numbering) conjugated to 40 kDa PEG-maleimide (thioether linkage)
Consider B8, for which, in experiment [4], the “STAT1/STAT3 EC50 ratio … HT29 cells” value was determined as 9.1; the “STAT1 Activation EC50 … HT29 cells” value worked out at 55.3 nM; the “STAT3 Activation EC50 … HT29 cells” value is 6.05 nM.

B9: 60K-PEG-IL22-P50C (ligand)
chain: APISSHCRLDKSNFQQCYITNRTFMLAKEASLADNNTDVRLIGEKLFHGVSMSERCYLMKQVLNFTLEEVLFPQSDRFQPYMQEVVPFLARLSNRLSTCHIEGDDLHIQRNVQKLKDTVKKLGESGEIKAIGELDLLFMSLRNACI
modifications: Cys at position 17 (SEQ ID NO:1 numbering) conjugated to 60 kDa PEG-maleimide (thioether linkage)
Regarding B9, in experiment [4], the “STAT1/STAT3 EC50 ratio … HT29 cells” value is 2.4; the “STAT1 Activation EC50 … HT29 cells” value was 134 nM; the “STAT3 Activation EC50 … HT29 cells” value is 55.5 nM.

B10: 40K-PEG-IL22-D109C (ligand)
chain: APISSHCRLDKSNFQQPYITNRTFMLAKEASLADNNTDVRLIGEKLFHGVSMSERCYLMKQVLNFTLEEVLFPQSCRFQPYMQEVVPFLARLSNRLSTCHIEGDDLHIQRNVQKLKDTVKKLGESGEIKAIGELDLLFMSLRNACI
modifications: Cys at position 76 (SEQ ID NO:1 numbering) conjugated to 40 kDa PEG-maleimide (thioether linkage)
As for B10, in experiment [4], the “STAT1/STAT3 EC50 ratio … HT29 cells” value amounted to 31.3; the “STAT1 Activation EC50 … HT29 cells” value amounted to 10.9 nM; the “STAT3 Activation EC50 … HT29 cells” value was 0.348 nM.

B11: 60K-PEG-IL22-P120C (ligand)
chain: APISSHCRLDKSNFQQPYITNRTFMLAKEASLADNNTDVRLIGEKLFHGVSMSERCYLMKQVLNFTLEEVLFPQSDRFQPYMQEVVCFLARLSNRLSTCHIEGDDLHIQRNVQKLKDTVKKLGESGEIKAIGELDLLFMSLRNACI
modifications: Cys at position 87 (SEQ ID NO:1 numbering) conjugated to 60 kDa PEG-maleimide (thioether linkage)
For the molecule B11, in experiment [6], the “HaCaT: HT29 ratio (higher is better); p-STAT3 EC50, FACS” value is 37.7 and the “p-STAT3 EC50 (nM), HaCaT; FACS” value stood at 428 nM. Moreover, in experiment [4], the “STAT1/STAT3 EC50 ratio … HT29 cells” value was determined as 7.6; the “STAT1 Activation EC50 … HT29 cells” value came to 86.2 nM; the “STAT3 Activation EC50 … HT29 cells” value was 11.4 nM.

These data come from patent EP4786489A1, “IL-22 MUTANT, PREPARATION METHOD THEREFOR, AND USE THEREOF” (Nanjing Novoacine Biotechnology Co., Ltd., priority 2023, dated 2025).
